Data on one substance can be found in paper PMC6525113.

This test has as its target Human methylmalonyl-CoA epimerase, wild-type (human) (UniProt Q96PE7). The test can be described thus: not stated; solution data (Supplemental Fig. S2).

With “Human methylmalonyl-CoA epimerase, wild-type (from UniProt Q96PE7 45-176) (enzyme)”, the stoichiometry N was 2.
